# B1: Phosphocarrier protein HPr wild type, P08877 (protein)
# chain: MAQKTFKVTADSGIHARPATVLVQTASKYDADVNLEYNGKTVNLKSIMGVMSLGIAKGAEITISASGADENDALNALEETMKSEGLGE
# Settings: Bacillus subtilis (strain 168), pH 7, Urea, CD, Potassium phosphate 10 mM, reversible: yes, whole UniProt chain shown
protein,measurement,setting,value
B1,denaturant m value,10 °C,1.04 kcal/mol/M
same,denaturant midpoint (higher = more stable),10 °C,3.32 M
same,unfolding free energy,10 °C,3.45 kcal/mol
same,denaturant m value,15 °C,1.06 kcal/mol/M
same,denaturant midpoint (higher = more stable),15 °C,3.52 M
same,unfolding free energy,15 °C,3.73 kcal/mol
same,denaturant m value,25 °C,1.08 kcal/mol/M
same,denaturant midpoint (higher = more stable),25 °C,3.9 M
same,unfolding free energy,25 °C,4.21 kcal/mol
same,denaturant m value,35 °C,1.05 kcal/mol/M
same,denaturant midpoint (higher = more stable),35 °C,3.77 M
same,unfolding free energy,35 °C,3.96 kcal/mol
same,denaturant m value,40 °C,1.04 kcal/mol/M
same,denaturant midpoint (higher = more stable),40 °C,3.64 M
same,unfolding free energy,40 °C,3.79 kcal/mol

# From FireProtDB (doi:10.1002/pro.5560040106)
